Test results: patent publication US20230147852A1 (SORRENTO THERAPEUTICS, published 2023)

Tests used:
[1] = biological target: T1, Recombinant human LAG3-His (Sino Biological; catalogue No. 16498-H08H) (human, UniProt P18627 23-450); test: ELISA: antibody coated at 5 µg/mL, soluble human LAG3-His titrated (x-axis: Human LAG3, µg/ml), OD at 450nm
T1 construct: also called human LAG3 His-tag protein; CD223
T1 sequence: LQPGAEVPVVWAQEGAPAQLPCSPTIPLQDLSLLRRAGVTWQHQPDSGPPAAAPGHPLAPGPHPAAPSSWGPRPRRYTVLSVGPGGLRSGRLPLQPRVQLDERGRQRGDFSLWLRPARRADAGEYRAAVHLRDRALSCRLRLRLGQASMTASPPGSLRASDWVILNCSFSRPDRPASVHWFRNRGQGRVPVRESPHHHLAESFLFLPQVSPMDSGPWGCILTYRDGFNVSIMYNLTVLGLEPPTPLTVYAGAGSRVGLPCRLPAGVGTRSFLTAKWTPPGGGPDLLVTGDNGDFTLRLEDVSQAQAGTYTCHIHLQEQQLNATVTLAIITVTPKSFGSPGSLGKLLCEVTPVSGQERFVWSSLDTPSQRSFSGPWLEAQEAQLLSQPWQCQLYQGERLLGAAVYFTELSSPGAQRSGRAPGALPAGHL

[2] = biological target: T2, Mouse LAG3 (mouse, UniProt Q61790); test: ELISA: LAG3-His coated at 2 µg/mL on a Ni-NTA plate, antibody (IgG4) at 2 µg/mL, anti-human Fc-HRP, OD at 450nm
T2 construct: recombinant, His-tagged, coated on a Ni-NTA plate; also called mouse LAG3-His Tag recombinant protein
T2 sequence (antigen, looked up): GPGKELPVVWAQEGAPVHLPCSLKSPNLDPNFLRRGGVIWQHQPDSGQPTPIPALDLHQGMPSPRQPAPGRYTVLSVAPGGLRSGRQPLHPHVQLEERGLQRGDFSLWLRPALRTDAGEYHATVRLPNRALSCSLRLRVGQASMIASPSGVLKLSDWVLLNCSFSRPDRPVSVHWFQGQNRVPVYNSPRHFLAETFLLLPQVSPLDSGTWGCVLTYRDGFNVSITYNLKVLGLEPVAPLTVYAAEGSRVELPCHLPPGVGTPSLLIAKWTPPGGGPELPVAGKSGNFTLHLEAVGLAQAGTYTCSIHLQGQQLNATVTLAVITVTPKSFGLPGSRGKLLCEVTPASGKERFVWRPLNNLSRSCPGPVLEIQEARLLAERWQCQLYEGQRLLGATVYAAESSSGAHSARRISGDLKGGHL

[3] = biological target: T3, recombinant human LAG3-Fc Tag protein (Sino Biological; catalogue no. 16498-H05H) (human, UniProt P18627); test: ELISA: antibody coated at 5 µg/mL captures human LAG3-Fc at 2 µg/mL; how the black bars (LAG3 binding) were detected is not told
T3 construct: recombinant, soluble
T3 sequence (fusion chain, looked up): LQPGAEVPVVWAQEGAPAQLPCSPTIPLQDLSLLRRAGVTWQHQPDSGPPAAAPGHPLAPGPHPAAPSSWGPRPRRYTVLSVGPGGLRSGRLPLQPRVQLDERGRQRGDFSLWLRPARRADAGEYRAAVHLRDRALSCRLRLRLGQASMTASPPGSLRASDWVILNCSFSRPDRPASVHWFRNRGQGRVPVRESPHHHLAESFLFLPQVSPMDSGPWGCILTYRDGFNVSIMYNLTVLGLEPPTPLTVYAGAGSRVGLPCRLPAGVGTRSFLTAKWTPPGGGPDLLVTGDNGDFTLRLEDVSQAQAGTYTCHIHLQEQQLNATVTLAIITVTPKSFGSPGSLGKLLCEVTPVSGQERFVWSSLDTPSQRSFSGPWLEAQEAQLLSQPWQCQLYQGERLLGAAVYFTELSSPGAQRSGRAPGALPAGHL

[4] = biological target: T4, human LAG3 on LAG3/NFAT-Luc reporter Jurkat cells (human, UniProt P18627); test: Flow cytometry on human LAG3/NFAT-Luc Jurkat cells, ΔMFI = LAG3 Jurkat minus wild-type Jurkat, AF647 anti-human IgG
T4 construct: on the surface of transfected Jurkat cells; also called human LAG3 expressed on Jurkat cells (BPS Biosciences; catalogue No. 71278)
T4 sequence (antigen, looked up): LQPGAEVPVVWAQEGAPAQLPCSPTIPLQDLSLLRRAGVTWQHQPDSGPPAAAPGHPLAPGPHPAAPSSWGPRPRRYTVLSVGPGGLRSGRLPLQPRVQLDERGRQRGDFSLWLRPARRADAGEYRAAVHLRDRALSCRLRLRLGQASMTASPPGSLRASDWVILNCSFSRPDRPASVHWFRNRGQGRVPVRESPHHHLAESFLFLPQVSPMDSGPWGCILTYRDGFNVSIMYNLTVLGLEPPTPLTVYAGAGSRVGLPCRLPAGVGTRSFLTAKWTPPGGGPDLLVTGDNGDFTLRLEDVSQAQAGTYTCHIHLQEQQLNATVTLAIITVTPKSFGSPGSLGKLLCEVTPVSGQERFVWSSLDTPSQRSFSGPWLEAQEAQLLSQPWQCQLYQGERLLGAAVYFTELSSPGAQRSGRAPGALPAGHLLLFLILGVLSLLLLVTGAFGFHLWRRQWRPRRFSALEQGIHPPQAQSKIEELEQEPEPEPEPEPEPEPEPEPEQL

[5] = biological target: T1, Recombinant human LAG3-His (Sino …); test: SPR (Biacore): antibody captured on anti-human Fc, human LAG3-His in solution
[6] = biological target: T2, Mouse LAG3; test: […], antibody ([…]) at 2 µg/mL, […]
[7] = biological target: T1, Recombinant human LAG3-His (Sino …); test: SPR (Biacore), antibody captured by anti-human Fc, human LAG3-His as analyte, 1:1 model

B1: 5C8 (antibody, V domains shown)
VH: QVQLVQSGAEVKKPGASVKVSCKASGYTFTSYGISWVRQAPGQGLEWMGWISAYNGNTNYAQKLQGRVTMTTDTSTSTAYMELRSLRSEDTAVYYCARDSGYDFEDWFDPWGQGTLVTVSS
VL: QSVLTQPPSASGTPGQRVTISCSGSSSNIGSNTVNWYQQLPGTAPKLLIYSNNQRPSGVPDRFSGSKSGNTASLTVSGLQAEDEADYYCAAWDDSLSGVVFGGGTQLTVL
notes: also called anti-LAG3 antibody 5C8
[1]
  EC50 (read off the curve): ~0.02 µg/mL
[2]
  binding result: no binding (tested: 2 µg/mL)

B2: 8D9 (antibody, V domains shown)
VH: QVQLVQSGAEVRKPGSSVKVSCKASGGTFSNYAFSWVRQAPGLGLEWLGAIIPEFDTANYAQKFKDRVTITADDSTTTVYMELSSLRSEDTAVYYCASGMWDYYGSGSSIDYWGQGTLVTVSS
VL: QSVLTQPPSASGTPGQRVTISCSGSNSDIGRNPVNWYHQFPGTAPKLLIFSNSHRPSGVPDRFSGSKSGTSASLAIGGLQSDDEADYYCAAWSDSLNGYVFGTGTKLTVL
notes: also called anti-LAG3 antibody 8D9; Clone 8D9
[3]
  binding result: binds
[4]
  binding result: binds
[5]
  binding result: binds
[6]
  binding result: no binding (tested: 2 µg/mL)

B3: 1C5-3A6 (antibody, V domains shown)
VH: QVQLVQSGAEVKKPGASVKVSCKASGYTLTDYYIHWVRQAPGQGLEWVGWINPNSGGTNYEQKFQGRVTMTWDTSISTAYMELSRLTSDDTAVYYCAREGWSNDWYVGYYFDYWGQGTLVTVSS
VL: DIQMTQSPLSLSASVGDRVSITCRASQYIGTSLNWYEQKPGNSPKLLITGASRLQSGVPSRFSGSGSGTDFTLTINTLQPDDLATYYCHQSYDDPPTFGQGTKLEIK
notes: also called anti-LAG3 antibody 1C5-3A6
[1]
  EC50 (read off the curve): ~0.07 µg/mL
[7]
  Kd: 0.0643 nM
[6]
  binding result: binds
